Test results published in US20260217845A1 (ODYSSEY THERAPEUTICS, published 2026).

T1: mouse TNFR2 (extracellular domain) (mouse, UniProt P25119 23-258)
T1 construct: also called mTNFR2
T1 sequence: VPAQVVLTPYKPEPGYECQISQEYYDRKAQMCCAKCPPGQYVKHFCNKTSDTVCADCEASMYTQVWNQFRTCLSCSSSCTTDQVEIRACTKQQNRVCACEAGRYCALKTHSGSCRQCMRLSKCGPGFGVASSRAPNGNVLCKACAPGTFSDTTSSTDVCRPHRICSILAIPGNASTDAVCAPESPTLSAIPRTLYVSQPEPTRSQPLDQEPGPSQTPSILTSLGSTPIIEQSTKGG

T2: human TNFR2 (extracellular domain) (human, UniProt P20333 23-257)
T2 construct: also called hTNFR2; human tumor necrosis factor receptor 2
T2 sequence: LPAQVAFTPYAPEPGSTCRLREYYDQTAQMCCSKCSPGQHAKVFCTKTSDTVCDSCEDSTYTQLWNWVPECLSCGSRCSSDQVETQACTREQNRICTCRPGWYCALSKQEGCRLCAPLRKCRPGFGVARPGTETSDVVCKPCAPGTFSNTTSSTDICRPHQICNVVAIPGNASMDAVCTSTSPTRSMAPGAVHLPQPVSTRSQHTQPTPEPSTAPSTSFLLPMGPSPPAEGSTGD


How the values were obtained:
[1] = molecular target: T1, mouse TNFR2 (extracellular domain); assay: SPR (Carterra LSA), V-body coupled to HC200M chip, TNFR2 extracellular domain in solution
Method: (§1) Binding affinities of the V-bodies to their respective target was determined by surface plasmon resonance (SPR) using a Caterra LSA instrument. Affinity purified V-bodies were covalently crosslinked onto an LSA HC200M chip using EDC/Sulfo NHS. The interaction with human, cynomolgus, and mouse TNFR2 (extracellular domain) (V-body coupling concentration: human, […]; cynomolgus/mouse, 4 μM) was measured under physiological conditions (Running Buffer: HBST-50 mM HEPES pH 7.4, 150 mM NaCl, 0.1% (w/v) BSA, 0.05% (v/v) Tween20, 25° C.) using eight different antigen concentrations (3-fold serial dilutions, start at 200 nM). Resulting sensorgrams (FIGS. 9A-9F) were analyzed and equilibrium-binding affinities (KDs) were calculated using Carterra's data analysis software.

[2] = molecular target: T2, human TNFR2 (extracellular domain); assay: SPR (Carterra LSA), V-body coupled to HC200M chip, TNFR2 extracellular domain in solution, 8 concentrations from 200 nM
Method: as §1

binding result [2] | Binder | binding result [1]
binds | ODY-31D6 (VHH) VHH: EVQLVESGGGLVQAGGSLRLSCAASGSIVSTNGMGWHRQVPGKGRELVAGIRSDGFTNYADSVKGRFTISSDNVKNTVYLQMNSLKAEDSGVYFCYYQALSSPNYGQTFWGQGTQVTVSS | no binding (tested: 200 nM (highest antigen concentration))
binds | ODY-37C7 (VHH) VHH: EVQLVESGGGLVQPGGSLRLSCAASGFTFDDIAMTWVRQAPGKGLEWVSSIYSYGPNTYYADSVKGRFTISTDSAKNTLYLQMNSLKPEDTAVYYCAADSDLSTVVVGPHDYWGQGTQVTVSS | no binding (tested: 200 nM (highest antigen concentration))
binds | ODY-35A10 (VHH) VHH: EVQLVESGGGLVEAGGSLRLSCAASGRTFGSYTMGWFRQAPGREQEFLASIRRTGGSTSYADSVKGRFTISRDNAKKAVYLQMNSLKPEDTAVYYCAAAPTGRAFTYWGQGTQVTVSS | no binding (tested: 200 nM (highest antigen concentration))
binds | ODY-31G3 (VHH) VHH: EVQLVESGGGLVQAGGSLRVSCAASGSIFRADAMGWHRQVPGKPREFVAGIRSDGFTNYAEAVKGRFTISWDTVKNTVYLQMNSLKPEDTAVYTCYYQSLSSPNYGQVFWGQGTQVTVSS | no binding (tested: 200 nM (highest antigen concentration))
binds | ODY-33D4 (VHH) VHH: EVQLVESGGGLVQAGGSLRLSCAASGRTFSDYGMGWFRQAPGKDSEFVAAINWSNGRTNYADSVKGRFTISRDNAKNTGYLEMNSLKVEDTAVYYCAATPSGKAYSYWGQGTQVTVSS | no binding (tested: 200 nM (highest antigen concentration))
